In US20260132392, “GENE EDITING SYSTEMS COMPRISING REVERSE TRANSCRIPTASES” (Metagenomi, Inc., published 2026):

Molecular target: T1, Ec86 retron RT (Escherichia coli, UniProt P23070 P23070:1-320)
T1 sequence: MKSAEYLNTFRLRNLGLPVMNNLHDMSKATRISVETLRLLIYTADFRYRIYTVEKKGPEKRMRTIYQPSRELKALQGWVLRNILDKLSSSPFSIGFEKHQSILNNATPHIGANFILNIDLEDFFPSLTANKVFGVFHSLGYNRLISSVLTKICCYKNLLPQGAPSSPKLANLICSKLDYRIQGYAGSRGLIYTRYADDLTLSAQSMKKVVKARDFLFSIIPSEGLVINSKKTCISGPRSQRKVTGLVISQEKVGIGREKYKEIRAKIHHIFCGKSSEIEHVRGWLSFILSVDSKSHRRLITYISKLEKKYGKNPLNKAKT
Assay: msdDNA qPCR, 37 C 2 h
Details: tags: N-terminal Strep tag
Procedure: The Ec86 RT was co-expressed with the ncRNA substrate (final 100 nM) in a cell-free expression system) supplemented with dNTPs (final 0.3 mM). Expression constructs were codon-optimized for E. coli and contained an N-terminal single Strep tag. After incubation for 2 h at 37° C., the reaction was quenched by heat denaturation at 95° C. for 2 min, followed by treatment by RNase A for 30 min at 37° C. […] The resulting reverse transcription products, herein referred to as msdDNA, were diluted prior to qPCR to ensure msdDNA concentrations were within the linear range of detection. The amount of msdDNA was quantified by extrapolating values from a standard curve generated with a DNA template of known concentrations.

B1: Ec86 wild-type ncRNA (ssRNA)
RNA: GGAUGCGCACCCUUAGCGAGAGGUUUAUCAUUAAGGUCAACCUCUGGAUGUUGUUUCGGCAUCCUGCAUUGAAUCUGAGUUACUGUCUGUUUUCCUUGUUGGAACGGAGAGCAUCGCCUGAUGCUCUCCGAGCCAACCAGGAAACCCGUUUUUUCUGACGUAAGGGUGCGCAACUUUC
B1: binds.
